From article PMC6446905 (Science (New York, N.Y.), 2018)

T1: TAF2 (human (endogenous in HeLa), UniProt Q6P1X5 1-1199)
T1 sequence (looked up): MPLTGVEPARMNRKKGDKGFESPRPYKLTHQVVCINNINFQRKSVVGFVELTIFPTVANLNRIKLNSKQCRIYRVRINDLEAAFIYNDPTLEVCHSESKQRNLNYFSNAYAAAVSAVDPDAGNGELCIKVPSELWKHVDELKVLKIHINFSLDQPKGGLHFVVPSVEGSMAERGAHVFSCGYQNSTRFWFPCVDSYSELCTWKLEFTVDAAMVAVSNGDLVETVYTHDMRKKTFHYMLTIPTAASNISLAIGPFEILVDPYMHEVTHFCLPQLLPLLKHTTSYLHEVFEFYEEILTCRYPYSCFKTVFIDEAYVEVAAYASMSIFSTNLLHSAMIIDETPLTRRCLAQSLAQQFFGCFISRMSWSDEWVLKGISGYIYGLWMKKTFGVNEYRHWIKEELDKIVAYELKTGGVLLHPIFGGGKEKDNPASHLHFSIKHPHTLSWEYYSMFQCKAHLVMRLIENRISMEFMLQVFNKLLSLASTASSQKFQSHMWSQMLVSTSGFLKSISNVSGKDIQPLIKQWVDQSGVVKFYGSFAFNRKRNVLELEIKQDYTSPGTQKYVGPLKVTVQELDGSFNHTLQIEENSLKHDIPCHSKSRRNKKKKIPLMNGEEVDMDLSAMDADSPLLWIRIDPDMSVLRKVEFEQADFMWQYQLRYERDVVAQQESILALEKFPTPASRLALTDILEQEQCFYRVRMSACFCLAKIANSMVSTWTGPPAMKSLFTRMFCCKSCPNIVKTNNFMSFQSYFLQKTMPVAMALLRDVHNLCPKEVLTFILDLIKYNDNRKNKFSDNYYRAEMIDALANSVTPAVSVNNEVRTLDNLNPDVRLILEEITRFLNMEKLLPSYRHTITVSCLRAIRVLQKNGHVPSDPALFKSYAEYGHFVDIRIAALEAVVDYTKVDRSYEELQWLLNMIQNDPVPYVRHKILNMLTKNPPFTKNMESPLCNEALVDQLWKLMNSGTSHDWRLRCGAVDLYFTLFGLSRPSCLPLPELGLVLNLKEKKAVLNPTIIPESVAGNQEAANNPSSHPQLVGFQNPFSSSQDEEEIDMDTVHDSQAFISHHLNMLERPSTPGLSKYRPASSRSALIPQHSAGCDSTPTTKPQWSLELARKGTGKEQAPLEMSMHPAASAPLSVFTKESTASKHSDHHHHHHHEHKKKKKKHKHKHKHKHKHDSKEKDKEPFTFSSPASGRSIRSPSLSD

T2: TAF4 (human (endogenous in HeLa), UniProt O00268 1-1085)
T2 sequence (looked up): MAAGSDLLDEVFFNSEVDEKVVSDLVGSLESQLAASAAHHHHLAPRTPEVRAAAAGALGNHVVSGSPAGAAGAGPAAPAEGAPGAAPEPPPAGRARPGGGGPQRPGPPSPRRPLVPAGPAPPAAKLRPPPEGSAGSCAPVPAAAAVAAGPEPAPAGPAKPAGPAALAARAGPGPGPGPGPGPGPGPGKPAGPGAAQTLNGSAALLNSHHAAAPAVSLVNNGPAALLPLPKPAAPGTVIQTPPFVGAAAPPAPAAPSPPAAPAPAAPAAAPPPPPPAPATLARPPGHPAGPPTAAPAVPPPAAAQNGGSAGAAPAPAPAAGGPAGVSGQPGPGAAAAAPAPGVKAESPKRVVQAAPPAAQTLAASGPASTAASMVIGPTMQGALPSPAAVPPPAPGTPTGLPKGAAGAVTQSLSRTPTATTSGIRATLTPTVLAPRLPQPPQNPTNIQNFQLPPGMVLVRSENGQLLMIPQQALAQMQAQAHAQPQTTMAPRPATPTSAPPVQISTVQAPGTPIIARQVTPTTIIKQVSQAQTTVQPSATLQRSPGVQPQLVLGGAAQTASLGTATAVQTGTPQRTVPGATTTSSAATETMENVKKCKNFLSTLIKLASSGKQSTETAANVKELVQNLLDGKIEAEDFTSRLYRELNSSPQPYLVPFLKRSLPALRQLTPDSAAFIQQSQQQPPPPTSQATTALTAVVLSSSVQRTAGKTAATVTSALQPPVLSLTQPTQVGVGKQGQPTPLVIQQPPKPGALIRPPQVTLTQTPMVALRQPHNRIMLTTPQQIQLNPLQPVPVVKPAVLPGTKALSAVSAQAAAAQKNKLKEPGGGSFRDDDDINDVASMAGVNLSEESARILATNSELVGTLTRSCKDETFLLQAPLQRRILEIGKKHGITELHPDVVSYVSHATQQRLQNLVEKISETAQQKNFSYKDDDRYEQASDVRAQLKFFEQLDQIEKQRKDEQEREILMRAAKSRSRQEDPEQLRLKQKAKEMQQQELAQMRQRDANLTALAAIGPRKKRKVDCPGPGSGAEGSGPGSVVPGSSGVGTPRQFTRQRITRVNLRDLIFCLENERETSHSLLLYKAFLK

B1: TAF6 (natural protein)
chain: not shown
B2: TAF8 (natural protein, human (endogenous in HeLa), UniProt Q7Z7C8 1-310, looked up)
chain: MADAAATAGAGGSGTRSGSKQSTNPADNYHLARRRTLQVVVSSLLTEAGFESAEKASVETLTEMLQSYISEIGRSAKSYCEHTARTQPTLSDIVVTLVEMGFNVDTLPAYAKRSQRMVITAPPVTNQPVTPKALTAGQNRPHPPHIPSHFPEFPDPHTYIKTPTYREPVSDYQVLREKAASQRRDVERALTRFMAKTGETQSLFKDDVSTFPLIAARPFTIPYLTALLPSELEMQQMEETDSSEQDEQTDTENLALHISMEDSGAEKENTSVLQQNPSLSGSRNGEENIIDNPYLRPVKKPKIRRKKSLS
B3: TAF5 (natural protein, human (endogenous in HeLa), UniProt Q15542 1-800, looked up)
chain: MAALAEEQTEVAVKLEPEGPPTLLPPQAGDGAGEGSGGTTNNGPNGGGGNVAASSSTGGDGGTPKPTVAVSAAAPAGAAPVPAAAPDAGAPHDRQTLLAVLQFLRQSKLREAEEALRREAGLLEEAVAGSGAPGEVDSAGAEVTSALLSRVTASAPGPAAPDPPGTGASGATVVSGSASGPAAPGKVGSVAVEDQPDVSAVLSAYNQQGDPTMYEEYYSGLKHFIECSLDCHRAELSQLFYPLFVHMYLELVYNQHENEAKSFFEKFHGDQECYYQDDLRVLSSLTKKEHMKGNETMLDFRTSKFVLRISRDSYQLLKRHLQEKQNNQIWNIVQEHLYIDIFDGMPRSKQQIDAMVGSLAGEAKREANKSKVFFGLLKEPEIEVPLDDEDEEGENEEGKPKKKKPKKDSIGSKSKKQDPNAPPQNRIPLPELKDSDKLDKIMNMKETTKRVRLGPDCLPSICFYTFLNAYQGLTAVDVTDDSSLIAGGFADSTVRVWSVTPKKLRSVKQASDLSLIDKESDDVLERIMDEKTASELKILYGHSGPVYGASFSPDRNYLLSSSEDGTVRLWSLQTFTCLVGYKGHNYPVWDTQFSPYGYYFVSGGHDRVARLWATDHYQPLRIFAGHLADVNCTRFHPNSNYVATGSADRTVRLWDVLNGNCVRIFTGHKGPIHSLTFSPNGRFLATGATDGRVLLWDIGHGLMVGELKGHTDTVCSLRFSRDGEILASGSMDNTVRLWDAIKAFEDLETDDFTTATGHINLPENSQELLLGTYMTKSTPVVHLHFTRRNLVLAAGAYSPQ
B4: TAF9 (natural protein, human (endogenous in HeLa), UniProt Q16594 1-264, looked up)
chain: MESGKTASPKSMPKDAQMMAQILKDMGITEYEPRVINQMLEFAFRYVTTILDDAKIYSSHAKKATVDADDVRLAIQCRADQSFTSPPPRDFLLDIARQRNQTPLPLIKPYSGPRLPPDRYCLTAPNYRLKSLQKKASTSAGRITVPRLSVGSVTSRPSTPTLGTPTPQTMSVSTKVGTPMSLTGQRFTVQMPTSQSPAVKASIPATSAVQNVLINPSLIGSKNILITTNMMSSQNTANESSNALKRKREDDDDDDDDDDDYDNL
B5: TAF12 (natural protein, human (endogenous in HeLa), UniProt Q16514 1-161, looked up)
chain: MNQFGPSALINLSNFSSIKPEPASTPPQGSMANSTAVVKIPGTPGAGGRLSPENNQVLTKKKLQDLVREVDPNEQLDEDVEEMLLQIADDFIESVVTAACQLARHRKSSTLEVKDVQLHLERQWNMWIPGFGSEEIRPYKKACTTEAHKQRMALIRKTTKK

Experiments:
Assay in all cases: cryo-EM structure
cryo-EM structure = target: the molecule itself
TAF5 = target: B3
TAF6 = target: B1
TAF2 = target: T1, TAF2
TAF4 = target: T2, TAF4

Sequence of TAF6 (P49848 whole entry): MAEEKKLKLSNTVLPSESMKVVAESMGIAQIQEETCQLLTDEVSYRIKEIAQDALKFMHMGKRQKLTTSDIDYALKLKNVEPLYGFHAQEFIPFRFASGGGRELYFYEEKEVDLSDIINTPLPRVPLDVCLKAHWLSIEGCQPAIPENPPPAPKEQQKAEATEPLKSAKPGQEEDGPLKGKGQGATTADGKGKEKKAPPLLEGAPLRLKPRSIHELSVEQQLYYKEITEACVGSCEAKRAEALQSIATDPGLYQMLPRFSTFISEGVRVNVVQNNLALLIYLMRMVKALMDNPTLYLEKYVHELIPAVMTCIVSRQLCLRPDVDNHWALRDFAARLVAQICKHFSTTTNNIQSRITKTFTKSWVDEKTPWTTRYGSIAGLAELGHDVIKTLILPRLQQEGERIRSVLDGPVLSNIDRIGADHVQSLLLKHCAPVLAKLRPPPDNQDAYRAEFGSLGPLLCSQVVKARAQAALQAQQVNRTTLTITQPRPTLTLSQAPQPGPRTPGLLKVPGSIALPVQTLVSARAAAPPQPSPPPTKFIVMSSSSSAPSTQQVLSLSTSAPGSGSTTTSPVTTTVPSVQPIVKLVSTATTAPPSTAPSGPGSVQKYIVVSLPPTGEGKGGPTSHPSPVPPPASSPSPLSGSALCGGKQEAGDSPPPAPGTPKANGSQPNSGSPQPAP

Binder	binding result (TAF5)	binding result (TAF6)	binding result (TAF4)	also measured
B1				stoichiometry N (cryo-EM structure): 2
B2	binds	binds		binding result (TAF2): binds
B3			binds	
B4	binds	binds		
B5			binds	
